PMC6856630

What was measured:
Assay in all cases: BLI; Octet RED384; biotinylated neurexin LNS2 on streptavidin tips, Nxph in solution; 25°C, PBS pH 7.4, 50 nM TCEP, 1% BSA; global fit, double reference subtraction
[1] = molecular target: Nrxn3 LNS2^SS2− (I401Q), AviTag-His, biotinylated (BLI) (mouse)
[2] = molecular target: Nrxn1 LNS2^SS2AB+ (I401Q), AviTag-His, biotinylated (BLI) (mouse)
[3] = molecular target: Nrxn3 LNS2^SS2−, AviTag-His, biotinylated (BLI) (mouse)
[4] = molecular target: Nrxn1 LNS2^SS2AB+, AviTag-His, biotinylated (BLI) (mouse)
[5] = molecular target: Nrxn2 LNS2^SS2− (I401Q), AviTag-His, biotinylated (BLI) (mouse)
[6] = molecular target: Nrxn2 LNS2^SS2−, AviTag-His, biotinylated (BLI) (mouse)

Chain of Nxph1-2XFLAG-His (mature rat neurexophilin-1, 118-271, glycosylated) (Q63366 118-271): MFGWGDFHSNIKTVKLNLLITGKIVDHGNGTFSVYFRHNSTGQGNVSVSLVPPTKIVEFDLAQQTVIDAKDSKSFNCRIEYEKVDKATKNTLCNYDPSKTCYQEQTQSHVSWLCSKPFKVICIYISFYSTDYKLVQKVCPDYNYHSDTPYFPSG
Chain of Nxph3-2XFLAG-His (rat neurexophilin-3, 50-252) (Q9Z2N5 50-252): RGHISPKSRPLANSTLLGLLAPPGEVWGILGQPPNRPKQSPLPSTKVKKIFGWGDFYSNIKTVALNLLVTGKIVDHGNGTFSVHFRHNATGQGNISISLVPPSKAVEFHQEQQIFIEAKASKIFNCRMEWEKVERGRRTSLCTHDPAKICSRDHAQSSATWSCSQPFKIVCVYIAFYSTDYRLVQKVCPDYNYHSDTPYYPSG

Kd [1]	koff [1]	kon [1]	Kd [2]	koff [2]	kon [2]	Kd [3]	koff [3]	kon [3]	Kd [4]	koff [4]	kon [4]	Kd [5]	koff [5]	kon [5]	Kd [6]	koff [6]	kon [6]	Substance
1940 µM	0.012 s⁻¹	10.5 M⁻¹ s⁻¹	0.499 µM	0.00034 s⁻¹	674 M⁻¹ s⁻¹	0.207 µM	9.2e-05 s⁻¹	444 M⁻¹ s⁻¹	0.0433 µM	9.4e-05 s⁻¹	2170 M⁻¹ s⁻¹	39.3 µM	0.0025 s⁻¹	381 M⁻¹ s⁻¹	0.124 µM	6.9e-05 s⁻¹	554 M⁻¹ s⁻¹	Nxph1-2XFLAG-His (mature rat neurexophilin-1, 118-271, glycosylated) (from UniProt Q63366 118-271) (ligand)
3.5 µM	0.00053 s⁻¹	153 M⁻¹ s⁻¹	–	–	–	0.177 µM	3.1e-05 s⁻¹	178 M⁻¹ s⁻¹	–	–	–	1.31 µM	0.00044 s⁻¹	350 M⁻¹ s⁻¹	0.212 µM	6.7e-05 s⁻¹	302 M⁻¹ s⁻¹	Nxph3-2XFLAG-His (rat neurexophilin-3, 50-252) (from UniProt Q9Z2N5 50-252) (ligand)
